{"source": "patent US20130109618", "key": {"Tat-Cit57 (HIV-1?) [1]": {"system": "Tat-Cit57 (HIV-1?)", "test": "FP", "conditions": "50 mM Tris-HCl pH 7.4, 20 mM KCl, 0.02% Tween-20, room temperature"}, "Tat-Cit56 (HIV-1?) [2]": {"system": "Tat-Cit56 (HIV-1?)", "test": "FP", "conditions": "50 mM Tris-HCl pH 7.4, 20 mM KCl, 0.02% Tween-20, room temperature"}, "Tat-Cit55 (HIV-1?) [3]": {"system": "Tat-Cit55 (HIV-1?)", "test": "FP", "conditions": "50 mM Tris-HCl pH 7.4, 20 mM KCl, 0.02% Tween-20, room temperature"}, "[4]": {"system": "ArgTat (Tat(47-57), Tat-Arg) (HIV-1?)", "test": "FP", "conditions": "apparent; 1:1 fit; 50 mM Tris-HCl pH 7.4, 20 mM KCl, 0.02% Tween-20, room temperature, 25 nM RNA"}, "Tat-Cit53 (HIV-1?) [5]": {"system": "Tat-Cit53 (HIV-1?)", "test": "FP", "conditions": "50 mM Tris-HCl pH 7.4, 20 mM KCl, 0.02% Tween-20, room temperature"}, "Tat-Cit52 (HIV-1?) [6]": {"system": "Tat-Cit52 (HIV-1?)", "test": "FP", "conditions": "50 mM Tris-HCl pH 7.4, 20 mM KCl, 0.02% Tween-20, room temperature"}, "Tat-Cit49 (HIV-1?) [7]": {"system": "Tat-Cit49 (HIV-1?)", "test": "FP", "conditions": "50 mM Tris-HCl pH 7.4, 20 mM KCl, 0.02% Tween-20, room temperature"}, "[8]": {"system": "AgbTat (all six Arg replaced by Agb) (HIV-1?)", "test": "FP", "conditions": "apparent; 1:1 fit; 50 mM Tris-HCl pH 7.4, 20 mM KCl, 0.02% Tween-20, room temperature"}, "[9]": {"system": "AghTat (all six Arg replaced by Agh) (HIV-1?)", "test": "FP", "conditions": "apparent; 1:1 fit; 50 mM Tris-HCl pH 7.4, 20 mM KCl, 0.02% Tween-20, room temperature"}, "Tat-Cit57 (HIV-1?) [10]": {"system": "Tat-Cit57 (HIV-1?)", "test": "EMSA", "conditions": "with 10 ug/mL poly(dI-dC), 25 C"}, "Tat-Cit56 (HIV-1?) [11]": {"system": "Tat-Cit56 (HIV-1?)", "test": "EMSA", "conditions": "with 10 ug/mL poly(dI-dC), 25 C"}, "Tat-Cit55 (HIV-1?) [12]": {"system": "Tat-Cit55 (HIV-1?)", "test": "EMSA", "conditions": "with 10 ug/mL poly(dI-dC), 25 C"}, "[13]": {"system": "ArgTat (Tat(47-57), Tat-Arg) (HIV-1?)", "test": "EMSA"}, "Tat-Cit53 (HIV-1?) [14]": {"system": "Tat-Cit53 (HIV-1?)", "test": "EMSA", "conditions": "with 10 ug/mL poly(dI-dC), 25 C"}, "Tat-Cit52 (HIV-1?) [15]": {"system": "Tat-Cit52 (HIV-1?)", "test": "EMSA", "conditions": "with 10 ug/mL poly(dI-dC), 25 C"}, "[16]": {"system": "Ac-Agp57-Tat(47-57)-NH2 (HIV-1?)", "test": "EMSA", "conditions": "with 10 ug/mL poly(dI-dC); unit inferred, inferred nM from comparison with 67 ± 19"}, "Tat-Cit49 (HIV-1?) [17]": {"system": "Tat-Cit49 (HIV-1?)", "test": "EMSA", "conditions": "with 10 ug/mL poly(dI-dC), 25 C"}, "[18]": {"system": "AgbTat (all six Arg replaced by Agb) (HIV-1?)", "test": "EMSA", "conditions": "apparent; with 10 ug/mL poly(dI-dC); 50 mM Tris-HCl pH 7.4, 50 mM KCl"}, "[19]": {"system": "AghTat (all six Arg replaced by Agh) (HIV-1?)", "test": "EMSA", "conditions": "apparent; with 10 ug/mL poly(dI-dC); 50 mM Tris-HCl pH 7.4, 50 mM KCl"}}, "data": [{"substance": "HIV TAR RNA (F-TAR-RNA)", "values": [{"measurement": "Kd", "setting": "Tat-Cit57 (HIV-1?) [1]", "value": 49, "unit": "nM"}, {"measurement": "Kd", "setting": "Tat-Cit56 (HIV-1?) [2]", "value": 55, "unit": "nM"}, {"measurement": "Kd", "setting": "Tat-Cit55 (HIV-1?) [3]", "value": 99, "unit": "nM"}, {"measurement": "Kd", "setting": "[4]", "value": 25, "unit": "nM"}, {"measurement": "Kd", "setting": "Tat-Cit53 (HIV-1?) [5]", "value": 102, "unit": "nM"}, {"measurement": "Kd", "setting": "Tat-Cit52 (HIV-1?) [6]", "value": 116, "unit": "nM"}, {"measurement": "Kd", "setting": "Tat-Cit49 (HIV-1?) [7]", "value": 94, "unit": "nM"}, {"measurement": "Kd", "setting": "[8]", "value": 32, "unit": "nM"}, {"measurement": "Kd", "setting": "[9]", "value": 36, "unit": "nM"}, {"measurement": "Kd", "setting": "Tat-Cit57 (HIV-1?) [10]", "value": 146, "unit": "nM"}, {"measurement": "Kd", "setting": "Tat-Cit56 (HIV-1?) [11]", "value": 164, "unit": "nM"}, {"measurement": "Kd", "setting": "Tat-Cit55 (HIV-1?) [12]", "value": 279, "unit": "nM"}, {"measurement": "Kd", "setting": "[13]", "value": 67, "unit": "nM"}, {"measurement": "Kd", "setting": "Tat-Cit53 (HIV-1?) [14]", "value": 344, "unit": "nM"}, {"measurement": "Kd", "setting": "Tat-Cit52 (HIV-1?) [15]", "value": 235, "unit": "nM"}, {"measurement": "Kd", "setting": "[16]", "value": 56, "unit": "nM"}, {"measurement": "Kd", "setting": "Tat-Cit49 (HIV-1?) [17]", "value": 138, "unit": "nM"}, {"measurement": "Kd", "setting": "[18]", "value": 31, "unit": "nM"}, {"measurement": "Kd", "setting": "[19]", "value": 450, "unit": "nM"}]}]}
